Test results reported in the supplement of paper PMC7877785.
± gives the uncertainty stated by the source.

Test: self-splicing fitness, log relative to wild type (ln ratio); higher = more splicing; Tetrahymena group I intron in knt gene, E. coli kanamycin selection, DiMSum; sequences stand for … in CUCUCU…GGAGGGAAAAGUUAUCAGGCAUGCACCUGGUAGCUAGUCUUUAAACCAAUAGAUUGCAUCGGUUUAAAAGGCAAGACCGUCAAAUUGCGGGAAAGGGGUCAACAGCCGUUCAGUACCAAGUCUCAGGGGAAACUUUGAGAUGGCCUUGCAAAGGGUAUGGUAAUAAGCUGACGGACAUGGUCCUAACCACGCAGCCAAGUCCUAAGUCAACAGAUCUUCUGUUGAUAUGGAUGCAGUUCACAGACUAAAUGUCGGUCGGGGAAGAUGUAUUCUUCUCAUAAGAUAUAGUCGGACCUCUCCUUAAUGGGAGCUAGCGGAUGAAGUGAUGCAACACUGGAGCCGCUGGGAACUAAUUUGUAUGCGAAAGUAUAUUGAUUAGUUUUGGAGUACUCGUGGUCG
Outline: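 DiMSum derived fitness as the error-weighted combination of fold changes across replicates, kanamycin versus no kanamycin, normalised to wild type. E. coli BL21(DE3) held the library, which randomised all eight P1ex-region intron nucleotides within the knt kanamycin-resistance gene on pET-22b(+). Six replicate transformations grew overnight at 37°C or 30°C on LB agar with or without 25 μg/mL kanamycin, also containing 100 μg/mL carbenicillin, 50 μM IPTG and 0.2% rhamnose, and pooled colonies were amplicon-sequenced on an Illumina HiSeq 2500.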

Row | Sequence | self-splicing fitness (ln) (30 °C) | self-splicing fitness (ln) (37 °C)
1 | ACAAAGCAAUAUUACGCGAU | -2.75 ± 0.14 | -2.22 ± 0.16
2 | ACAAAGCAAUAUUACGCGCU | -0.245 ± 0.053 | 0.00495 ± 0.066
3 | ACAAAGCAAUAUUACGCUCA | -0.782 ± 0.088 | 0.156 ± 0.11
4 | ACAAAGCAAUAUUACGCUGG | -1.3 ± 0.095 | -0.426 ± 0.12
5 | ACAAAGCAAUAUUACGGAAU | -3.21 ± 0.19 | -1.82 ± 0.19
6 | ACAAAGCAAUAUUACGGAUC | -2.77 ± 0.12 | -0.403 ± 0.11
7 | ACAAAGCAAUAUUACGGCGC | -0.996 ± 0.076 | 0.358 ± 0.12
8 | ACAAAGCAAUAUUACGGCUC | -0.452 ± 0.078 | -0.217 ± 0.12
9 | ACAAAGCAAUAUUACGGGCA | -1.56 ± 0.069 | -1.28 ± 0.056
10 | ACAAAGCAAUAUUACGGUCC | -1.7 ± 0.11 | -0.977 ± 0.16
11 | ACAAAGCAAUAUUACGGUUC | -3.12 ± 0.13 | -1.93 ± 0.17
12 | ACAAAGCAAUAUUACGUAGU | -2.57 ± 0.085 | -1.43 ± 0.095
13 | ACAAAGCAAUAUUACGUCCC | -0.873 ± 0.23 | -1.78 ± 0.25
14 | ACAAAGCAAUAUUACGUUUA | -3.55 ± 0.13 | -0.482 ± 0.088
15 | ACACAGCAAUAUUACGAAGA | -2.48 ± 0.1 | -1.99 ± 0.12
16 | ACACAGCAAUAUUACGACAG | -1.62 ± 0.054 | -0.914 ± 0.077
17 | ACACAGCAAUAUUACGAUAA | -2.46 ± 0.098 | -1.97 ± 0.11
18 | ACACAGCAAUAUUACGCACG | -0.797 ± 0.093 | -0.607 ± 0.12
19 | ACACAGCAAUAUUACGCGAG | -1.74 ± 0.053 | -0.504 ± 0.061
20 | ACACAGCAAUAUUACGCGGA | -1.98 ± 0.072 | -1.1 ± 0.07
21 | ACACAGCAAUAUUACGGAGC | -2.36 ± 0.13 | -1.52 ± 0.12
22 | ACACAGCAAUAUUACGGAGG | -2.69 ± 0.076 | -2.15 ± 0.098
23 | ACACAGCAAUAUUACGGGCU | -2.08 ± 0.093 | -1.11 ± 0.13
24 | ACACAGCAAUAUUACGGUUU | -1.05 ± 0.04 | -0.00178 ± 0.06

Row | Sequence | self-splicing fitness (ln) (30 °C) | self-splicing fitness (ln) (37 °C)
25 | ACACAGCAAUAUUACGUAAC | -3.39 ± 0.12 | -1.81 ± 0.14
26 | ACACAGCAAUAUUACGUAAU | -2.76 ± 0.085 | -1.73 ± 0.12
27 | ACACAGCAAUAUUACGUAGA | -3.64 ± 0.16 | -1.38 ± 0.11
28 | ACACAGCAAUAUUACGUAUU | -3.09 ± 0.089 | -2.29 ± 0.13
29 | ACACAGCAAUAUUACGUGAA | -1.84 ± 0.055 | -1.11 ± 0.079
30 | ACACAGCAAUAUUACGUGUG | -3.55 ± 0.1 | -1.44 ± 0.065
31 | ACACAGCAAUAUUACGUUAA | -2.79 ± 0.13 | -2.12 ± 0.12
32 | ACAGAGCAAUAUUACGAAAA | – | -3.05 ± 0.4
33 | ACAGAGCAAUAUUACGACUG | -1.05 ± 0.11 | -1.54 ± 0.15
34 | ACAGAGCAAUAUUACGAGGU | -3.36 ± 0.11 | -2.66 ± 0.15
35 | ACAGAGCAAUAUUACGAUGU | -3.39 ± 0.16 | -2.38 ± 0.18
36 | ACAGAGCAAUAUUACGCCCG | -3.2 ± 0.21 | -1.63 ± 0.18
37 | ACAGAGCAAUAUUACGCUAU | -3.38 ± 0.27 | -1.12 ± 0.19
38 | ACAGAGCAAUAUUACGCUUU | -2.28 ± 0.26 | -2.45 ± 0.23
39 | ACAGAGCAAUAUUACGGCAA | -0.636 ± 0.22 | -2.08 ± 0.33
40 | ACAGAGCAAUAUUACGGCCU | -3.08 ± 0.29 | -2.6 ± 0.25
41 | ACAGAGCAAUAUUACGGCGU | -1.24 ± 0.12 | -0.0954 ± 0.11
42 | ACAGAGCAAUAUUACGGGGC | -3.53 ± 0.17 | -2.73 ± 0.22
43 | ACAGAGCAAUAUUACGGGGU | -4.03 ± 0.34 | -2.39 ± 0.3
44 | ACAGAGCAAUAUUACGGGUC | -2.99 ± 0.18 | -2.89 ± 0.27
45 | ACAGAGCAAUAUUACGGUCC | -2.18 ± 0.14 | -2.05 ± 0.39
46 | ACAGAGCAAUAUUACGUAAC | -2.71 ± 0.11 | -3.27 ± 0.26
47 | ACAGAGCAAUAUUACGUAGC | -3.27 ± 0.33 | -2.56 ± 0.41
48 | ACAGAGCAAUAUUACGUAUA | -3.37 ± 0.26 | -2.72 ± 0.31

Row | Sequence | self-splicing fitness (ln) (30 °C) | self-splicing fitness (ln) (37 °C)
49 | ACAGAGCAAUAUUACGUGAG | -2.08 ± 0.11 | -1.55 ± 0.1
50 | ACAGAGCAAUAUUACGUGCG | -2.89 ± 0.29 | -1.75 ± 0.28
51 | ACAUAGCAAUAUUACGAAGG | -3.69 ± 0.28 | -1.33 ± 0.18
52 | ACAUAGCAAUAUUACGACCU | -0.446 ± 0.1 | 0.527 ± 0.13
53 | ACAUAGCAAUAUUACGACUG | -0.814 ± 0.065 | -0.36 ± 0.09
54 | ACAUAGCAAUAUUACGAGUU | -3.28 ± 0.18 | -2.28 ± 0.2
55 | ACAUAGCAAUAUUACGAUAU | -2.69 ± 0.15 | -1.97 ± 0.14
56 | ACAUAGCAAUAUUACGCCUA | -1.7 ± 0.24 | -0.307 ± 0.2
57 | ACAUAGCAAUAUUACGCCUG | -0.96 ± 0.16 | -0.622 ± 0.15
58 | ACAUAGCAAUAUUACGCGAU | -3.37 ± 0.21 | -2.35 ± 0.25
59 | ACAUAGCAAUAUUACGCGCG | -0.8 ± 0.12 | -0.126 ± 0.16
60 | ACAUAGCAAUAUUACGCGUC | -3.71 ± 0.18 | -3.26 ± 0.28
61 | ACAUAGCAAUAUUACGCGUG | -2.8 ± 0.1 | -1.28 ± 0.12
62 | ACAUAGCAAUAUUACGCUAG | -2 ± 0.11 | -0.855 ± 0.13
63 | ACAUAGCAAUAUUACGCUCG | -0.317 ± 0.091 | 0.247 ± 0.12
64 | ACAUAGCAAUAUUACGGGAA | -2.36 ± 0.11 | -1.7 ± 0.13
65 | ACAUAGCAAUAUUACGGGAC | -3.23 ± 0.14 | -1.37 ± 0.12
66 | ACAUAGCAAUAUUACGGGGA | -2.65 ± 0.29 | -1.92 ± 0.19
67 | ACAUAGCAAUAUUACGUCGA | -1.95 ± 0.18 | -1.64 ± 0.15
68 | ACAUAGCAAUAUUACGUGCA | -0.639 ± 0.053 | 0.349 ± 0.063
69 | ACAUAGCAAUAUUACGUGGC | -3.8 ± 0.23 | -3.09 ± 0.27
70 | ACAUAGCAAUAUUACGUGGU | -3.44 ± 0.16 | -3.3 ± 0.24
71 | ACCAAGCAAUAUUACGAACG | -1.61 ± 0.076 | -0.581 ± 0.087
72 | ACCAAGCAAUAUUACGAAGU | -3.09 ± 0.14 | -1.31 ± 0.14

Row | Sequence | self-splicing fitness (ln) (30 °C) | self-splicing fitness (ln) (37 °C)
73 | ACCAAGCAAUAUUACGAAUA | -2.69 ± 0.2 | -2.1 ± 0.16
74 | ACCAAGCAAUAUUACGACCA | -1.03 ± 0.081 | -1.02 ± 0.1
75 | ACCAAGCAAUAUUACGACGU | -0.00288 ± 0.056 | 0.552 ± 0.063
76 | ACCAAGCAAUAUUACGAGAG | -3.53 ± 0.2 | -2.3 ± 0.17
77 | ACCAAGCAAUAUUACGAUAA | -3.07 ± 0.18 | -1.46 ± 0.16
78 | ACCAAGCAAUAUUACGAUCA | -1.55 ± 0.086 | -1.22 ± 0.075
79 | ACCAAGCAAUAUUACGAUCU | -1.29 ± 0.064 | 0.0583 ± 0.076
80 | ACCAAGCAAUAUUACGAUUC | -1.48 ± 0.1 | -1.04 ± 0.14
81 | ACCAAGCAAUAUUACGCACG | -1.92 ± 0.1 | -0.625 ± 0.13
82 | ACCAAGCAAUAUUACGCCCG | -1.42 ± 0.14 | 0.129 ± 0.15
83 | ACCAAGCAAUAUUACGCUGA | -1.73 ± 0.1 | -1.13 ± 0.11
84 | ACCAAGCAAUAUUACGCUGC | -1.62 ± 0.063 | -0.906 ± 0.076
85 | ACCAAGCAAUAUUACGGAAU | -3.05 ± 0.11 | -1.15 ± 0.096
86 | ACCAAGCAAUAUUACGGACU | -0.029 ± 0.046 | 0.262 ± 0.062
87 | ACCAAGCAAUAUUACGGAUU | -2.62 ± 0.081 | -1.06 ± 0.081
88 | ACCAAGCAAUAUUACGGGAU | -2.53 ± 0.088 | -1.39 ± 0.083
89 | ACCAAGCAAUAUUACGGUGA | -1.68 ± 0.1 | -1.29 ± 0.083
90 | ACCAAGCAAUAUUACGUCUC | -2.73 ± 0.094 | -2.28 ± 0.12
91 | ACCAAGCAAUAUUACGUGGU | -3.41 ± 0.1 | -2.69 ± 0.13
92 | ACCAAGCAAUAUUACGUGUU | -3.99 ± 0.093 | -1.54 ± 0.075
93 | ACCCAGCAAUAUUACGAACU | -1.33 ± 0.11 | -0.29 ± 0.13
94 | ACCCAGCAAUAUUACGACCU | -0.748 ± 0.062 | -0.326 ± 0.074
95 | ACCCAGCAAUAUUACGAGAC | -2.34 ± 0.17 | -1.89 ± 0.18
